Patent US20210371529A1 (Innovent, published 2021)

T1: human LAG-3 overexpressed on HEK293 cells (human, UniProt P18627 23-525)
T1 construct: whole, on cells; also called 293-hLAG-3 cells; hLAG-3 on the cell surface
T1 sequence (looked up): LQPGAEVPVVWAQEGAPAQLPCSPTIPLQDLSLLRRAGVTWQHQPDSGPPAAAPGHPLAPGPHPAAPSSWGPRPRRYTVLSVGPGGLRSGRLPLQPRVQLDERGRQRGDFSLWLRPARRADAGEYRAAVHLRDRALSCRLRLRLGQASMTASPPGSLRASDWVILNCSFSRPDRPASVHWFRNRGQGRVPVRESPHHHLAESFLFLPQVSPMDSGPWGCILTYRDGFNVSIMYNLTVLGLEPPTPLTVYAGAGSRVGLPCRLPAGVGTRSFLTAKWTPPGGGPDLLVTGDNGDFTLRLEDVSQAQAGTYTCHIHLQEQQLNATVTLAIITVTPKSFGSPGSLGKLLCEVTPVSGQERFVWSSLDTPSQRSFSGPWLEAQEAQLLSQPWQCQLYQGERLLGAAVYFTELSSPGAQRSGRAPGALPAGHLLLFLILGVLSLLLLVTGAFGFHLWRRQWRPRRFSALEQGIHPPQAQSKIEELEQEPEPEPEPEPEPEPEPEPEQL

T2: human LAG-3-His (human, UniProt P18627 23-450)
T2 construct: Bought antigen (ArcoBiosystems), 100 nM in solution in the ForteBio assay; also called human LAG-3 antigen (ArcoBiosystems); hLAG-3; not shown: His tag
T2 sequence (looked up): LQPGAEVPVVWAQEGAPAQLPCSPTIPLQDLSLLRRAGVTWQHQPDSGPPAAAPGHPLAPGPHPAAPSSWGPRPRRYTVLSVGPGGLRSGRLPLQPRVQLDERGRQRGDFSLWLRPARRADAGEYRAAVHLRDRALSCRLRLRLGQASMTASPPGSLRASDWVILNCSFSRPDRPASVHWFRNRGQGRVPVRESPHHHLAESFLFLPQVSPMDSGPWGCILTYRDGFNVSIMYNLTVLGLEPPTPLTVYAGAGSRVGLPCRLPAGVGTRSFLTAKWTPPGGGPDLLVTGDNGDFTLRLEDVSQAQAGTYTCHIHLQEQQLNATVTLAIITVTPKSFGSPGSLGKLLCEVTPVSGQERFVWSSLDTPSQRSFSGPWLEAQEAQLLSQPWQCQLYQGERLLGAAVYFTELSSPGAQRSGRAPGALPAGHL

T3: mouse LAG-3 overexpressed on CHO cells (mouse, UniProt Q61790 24-521)
T3 construct: whole, on cells; also called CHO-mLAG-3 cells; mouse LAG-3 on the cell surface
T3 sequence (looked up): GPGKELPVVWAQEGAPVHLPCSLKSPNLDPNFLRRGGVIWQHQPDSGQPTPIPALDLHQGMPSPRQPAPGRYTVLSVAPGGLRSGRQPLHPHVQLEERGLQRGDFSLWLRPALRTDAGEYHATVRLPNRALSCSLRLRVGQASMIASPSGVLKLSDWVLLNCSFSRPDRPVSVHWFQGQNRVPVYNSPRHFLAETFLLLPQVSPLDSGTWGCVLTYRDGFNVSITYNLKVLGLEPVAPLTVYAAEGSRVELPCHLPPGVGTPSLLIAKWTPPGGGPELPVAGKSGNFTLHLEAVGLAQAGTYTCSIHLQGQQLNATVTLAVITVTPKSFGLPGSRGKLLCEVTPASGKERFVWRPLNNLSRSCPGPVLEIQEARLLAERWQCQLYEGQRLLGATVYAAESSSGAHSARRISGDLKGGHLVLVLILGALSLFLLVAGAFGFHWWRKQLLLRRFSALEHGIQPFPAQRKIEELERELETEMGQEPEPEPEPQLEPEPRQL


Key:
human PD-L1 = biological target: T4, human PD-L1 (human, UniProt Q9NZQ7 19-238); experiment: BLI (ForteBio), antibody loaded on sensor, human PD-L1 in solution
T4 construct: Bought antigen; also called human PD-L1 antigen (Acrobiosystems)
Method: The equilibrium dissociation constant (KD) for binding of the anti-PD-L1 antibody (HZ3266-IgG1N297A) to human PD-L1 was determined by biological optical interferometry (ForteBio). A ForteBio affinity assay of prior art was performed (Estep, P., et al, High throughput solution based measurement of antibody-antigen affinity and epitope binning. MAbs, 2013.5(2):270-8).
SD buffer, antibodies, and antigens (including human PD-L1, all purchased from Acrobiosystems) each of 100 μL were added to 96-well black polystyrene half area microplates (Greiner, 675076). The sensors were arranged according to the positions of the samples. The instrument settings were as follows: the operation procedures were Baseline, Loading ˜1 nm, Baseline, Association, and Dissociation. The run time of each procedure was dependent on the rates of association and dissociation. The rotation speed was 400 rpm, and the temperature was 30° C. The KD values were analyzed by ForteBio analysis software.

[1] = biological target: T1, human LAG-3 overexpressed on HEK293 …; experiment: flow cytometry on 293-hLAG-3 cells, MFI curve
Method: The binding of the 4 exemplary antibodies of the invention described above to human LAG-3 was measured in a flow cytometry-based assay. 293 cells (293-hLAG-3 cells) over-expressing human LAG-3 were generated by transfecting human embryonic kidney 293 cells (Invitrogen) with pCHO1.0 vectors (Invitrogen) carrying human LAG-3 cDNA (Sino Biological) cloned into multiple cloning sites (MCSs). 293-hLAG-3 cells (0.2×10⁶ cells) were mixed with different concentrations of antibodies (ADI-26789, ADI-26869 and reference 25F7) prepared as described above (the antibodies were serially three-fold diluted from a maximum concentration of 500 nM in PBS containing 0.1% bovine serum albumin (BSA) until the 8th concentration). The cells were incubated on ice for 30 min. The cells were then washed at least twice prior to addition of a secondary antibody (a PE-labeled goat anti-human IgG antibody, Southern Biotech, final concentration […]) diluted in 1:100, and incubated on ice (protected from light) for 30 minutes. The cells were washed at least twice and analyzed by flow cytometry. The flow cytometry assay was performed on an Accuri C6 system (BD Biosciences), and a concentration-dependent curve was fitted with GraphPad according to the mean fluorescence intensity (MFI).

human LAG-3-His [2] = biological target: T2, human LAG-3-His; experiment: BLI (ForteBio), antibody on AHQ tip, human LAG-3-His 100 nM in solution, univalent
Method: (§1) The purified antibody obtained as described above was loaded on-line onto an AHQ sensor (ForteBio) for ForteBio affinity assay. The sensor with the loaded antibody was then exposed to 100 nM of a human LAG-3 antigen (ArcoBiosystems) for 5 minutes before transferring the sensor to the assay buffer for dissociation for 5 minutes for dissociation rate measurement. Kinetic analysis was performed using a 1:1 binding model.

human LAG-3-His [3] = biological target: T2, human LAG-3-His; experiment: BLI (ForteBio), antibody on AHQ tip, human LAG-3-His 100 nM in solution
Method: as §1

[4] = biological target: T3, mouse LAG-3 overexpressed on CHO cells; experiment: flow cytometry (MFI) on CHO cells overexpressing mouse LAG-3; fit value from the EC50 table on the sheet for a flat curve (see non_binding); table has no unit of its own (concentration axis in nM)

T4 sequence (Q9NZQ7 19-238 limits assumed): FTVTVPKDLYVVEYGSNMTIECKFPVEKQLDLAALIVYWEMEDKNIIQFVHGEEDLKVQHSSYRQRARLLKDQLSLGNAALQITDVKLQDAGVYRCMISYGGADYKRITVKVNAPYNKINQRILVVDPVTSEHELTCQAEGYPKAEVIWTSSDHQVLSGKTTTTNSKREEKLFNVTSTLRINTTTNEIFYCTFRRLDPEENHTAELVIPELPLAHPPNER

Binder | Kd (human PD-L1) [nM] | EC50 [1] [nM] | Kd (human LAG-3-His [2]) [nM] | koff (human LAG-3-His [3]) [s⁻¹] | kon (human LAG-3-His [3]) [M⁻¹ s⁻¹] | EC50 [4] [nM]
HZ3266-IgG1N297A (antibody, V domains shown, also called anti-PD-L1 antibody (HZ3266-IgG1N297A)) VH: EVQLVQSGAEVKKPGATVKISCTASGFNIEDTYIHWVQQAPGQGLEWIGRIDPANDDTKYAPKFQGRATITADTSTDTAYMELSSLRSEDTAVYYCGRGLGRWFAYWGQGTLVTVSS VL: GIVMTQSPDSLAVSLGERATINCKASQDVINAVAWYQQKPGQSPKLLIYSASNRYTGVPDRFSGSGSGTDFTLTISSLQAEDLAVYYCQQHYSPPLTFGGGTKVEIKR | 0.724 | – | – | – | – | –
ADI-26869 (antibody, human IgG4 S228P, kappa, F234A L235A, V domains shown, Fully human antibody from yeast display; IgG4 heavy chain constant region with kappa light chain; expressed in HEK293 cells; also called anti-human LAG-3 antibody ADI-26869; parent antibody) VH: QLQLQESGPGLVKPSETLSLTCTVSGGSISSSDYYWGWIRQPPGKGLEWIGSIYYSGSTYYNPSLKSRVTISVDTSKNQFSLKLSSVTAADTAVYYCARVRTWDAAFDIWGQGTMVTVSS VL: DIQMTQSPSSLSASVGDRVTITCQASQDISNYLNWYQQKPGKAPKLLIYDASNLETGVPSRFSGSGSGTDFTFTISSLQPEDIATYYCQQVHALPPWTFGGGTKVEIKR | – | 2.91 | 7.88 | 0.00385 | 488000 | –
ADI-26789 (antibody, human IgG4 S228P, kappa, F234A L235A, V domains shown, Fully human antibody from yeast display; IgG4 heavy chain constant region with kappa light chain; also called anti-human LAG-3 antibody ADI-26789; parent antibody) VH: EVQLVESGGGLVQPGRSLRLSCAASGFTFDDYAMHWVRQAPGKGLEWVSGISWNSGDIGYADSVKGRFTISRDNAKNSLYLQMNSLRAEDTALYYCAKGGYDGSYYGMDVWGQGTTVTVSS VL: not shown | – | 2.14 | 18.3 | 0.00389 | 212000 | –
25F7 (antibody, V domains shown) VH: QVQLQQWGAGLLKPSETLSLTCAVYGGSFSDYYWNWIRQPPGKGLEWIGEINHNGNTNSNPSLKSRVTLSLDTSKNQFSLKLRSVTAADTAVYYCAFGYSDYEYNWFDPWGQGTLVTVSS VL: EIVLTQSPATLSLSPGERATLSCRASQSISSYLAWYQQKPGQAPRLLIYDASNRATGIPARFSGSGSGTDFTLTISSLEPEDFAVYYCQQRSNWPLTFGQGTNLEIK | – | – | – | – | – | 0.857
BAP050 (antibody, V domains shown) VH: QIQLVQSGPELKKPGETVKISCKASGFTLTNYGMNWVRQTPGKGLKWMGWINTDTGEPTYADDFKGRFAFSLETSASTASLQINNLKNADTATYFCARNPPYYYGTNNAEAMDYWGQGTAVTVSS VL: DIQMTQTTSSLSASLGDRVTISCSSSQDISNYLNWYQQKPDGTVKVLIYYTSTLHLGVPSRFSGSGSGTDYSLTISNLELEDIATYYCQQYYNLPWTFGGGTKLEIK | – | 1.41 | 0.844 | 0.0002 | 237000 | ~0.7
